The target in assay [1] is DDA1-DDB1ΔB-DCAF15Δpro triplex (human) (UniProt Q66K64). The experiment in a line: BLI. A general note: BLI is a label-free optical method that tracks binding on a fibre tip over time.
Assay [2] shares this target. The experiment in a line: ITC.

Data on 2 substances can be found in publication doi:10.1101/758409.

Sequence of RRM1-RRM2 domain of RBM39 (R1R2) (Q14498 150-331): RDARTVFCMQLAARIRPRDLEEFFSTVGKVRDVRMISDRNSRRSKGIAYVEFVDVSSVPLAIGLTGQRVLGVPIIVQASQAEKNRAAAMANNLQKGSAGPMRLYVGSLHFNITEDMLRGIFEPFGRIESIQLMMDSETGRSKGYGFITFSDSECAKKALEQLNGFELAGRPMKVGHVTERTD

In the case of “R1R2(M265L) (from UniProt Q14498 150-331) (domain or fragment)”, the Kd (usually the concentration at which binding is half-saturated) in assay [1] came out at 1200 nM.
On to “RRM1-RRM2 domain of RBM39 (R1R2) (from UniProt Q14498 150-331) (domain or fragment)”, for which the Kd in assay [2] is 6.4 µM; in assay [1], 4600 nM.
